Target: URH1p riboside hydrolase from Saccharomyces cerevisiae (S. cerevisiae) (UniProt Q04179)
Experiment: AUC; sedimentation velocity, absorbance 280 nm, 45,000 rpm; samples kept at 4 °C for two weeks; 2.6, 5.2, 10.4 and 15.6 µM; monomer to disulphide-linked dimer

- ratio between monomeric and dimeric URH1p in the sample: 33%
- stoichiometry N: 2
Substance: URH1p riboside hydrolase from Saccharomyces cerevisiae (from UniProt Q04179 2-340) (enzyme)

Source: article PMC11241417
